Consider 1 substance from US20170173105A1, “AUTOASSEMBLING PEPTIDES FOR THE TREATMENT OF PULMONARY LEAKAGE” (3-D MATRIX, LTD., priority 2014, published 2017).

A short description of data set [1]: Rheological measurements of RADA16 mixed with salts (stiffness, reversibility, gelation kinetics). The class given is physicochemical. The note with it: (RADA)4 about 2.5 w/v percent; calcium chloride about 0.125 M.
Assay in data set [2]: as above
The note with it: for gelation kinetics by ion: 0.5% RADA16; for storage modulus: (RADA)4 about 0.5 w/v percent. Format: physicochemical. The procedure: In a rheological comparison of 2.5% RADA16 and 2.5% RADA16+NaCl, KCl, and CaCl2, solutions of 0.5% RADA16 mixed with 0.005, 0.05, 0.125, 0.25, 0.5, and 1 M NaCl, KCl, and CaCl2 were prepared. The anion, chloride (Cl—), was kept the same to observe the effect of the cations, sodium (Na+), potassium (K+), and calcium (Ca2+). FIG. 21 provides a basic understanding of how varying the cations of a salt solution effects the viscoelastic properties and the stiffness of self-assembling peptides. […] This should be because Ca has […] higher ionic strength than Na and K at the same molar concentrations. Therefore, influence of salts on the peptide solution is more related to their ionic strength rather than their molar concentration, as shown in FIGS. 17-18 and Table 2a-c. In some embodiments, there is a correlation between the properties of the peptide solutions with salts based on the concentration of the salts.
Rheological measurements of stiffness of 2.5% RADA16 and 2.5% RADA16+0.25 M CaCl2 was evaluated.
Rheological measurements of reversibility of 0.5% RADA16 solution with +0.125, 0.25, and 0.5 M CaCl2 were evaluated. Solutions of 0.5% RADA16 mixed with 0.125, 0.25, and 0.5 M CaCl2 were prepared. The structure of the self-assembled peptide solution were disrupted thoroughly by application of mechanical stress through vortexing and sonication. The mixtures were placed at room temperature for 48 hours to allow self-assembly to take place. […] FIG. 23a presents raw rheological data of the control peptide solution with salts and the perturbed peptide solutions with salts while FIG. 23b provides a comparison of stiffness of the control peptide solutions and the perturbed peptide solutions.
Rheological measurements of gelation kinetics of 0.5% RADA16+NaCl, KCl, and CaCl2 were evaluated. A solution of 0.5% RADA16 was prepared and gelation kinetics were observed by treatment with several cations (e.g. Na, […], K) and anions (e.g. Cl, CO3, PO4, SO4). It was determined how long it will take for the peptide mixtures to gel and how to control that gelation time by varying the cation/anion type and concentration. […] In vivo and in vitro qualitative experiments and the resulting observations were supportive of these conclusions.
Due to the success of topically added solution of NaCl gently massaged into 2.5% RADA16 increasing the burst pressure of 2.5% RADA16, other salt based solutions were completely mixed with RADA16 and their mechanical properties were measured. […] The results can be seen in FIG. 29 with respect to the storage modulus (i.e. mechanical strength) of 0.5% PuraMatrix (RADA16) mixed with NaCl, KCl, or CaCl2 at varying concentrations.

“Arg-Ala-Asp-Ala-Arg-Ala-Asp-Ala-Arg-Ala-Asp-Ala-Arg-Ala-Asp-Ala [PuraMatrix ®]”: the storage modulus entry in data set [1] is reported as “about 600 Pa”; in data set [2] (calcium chloride about 0.125 M), “about 25 Pa”; in data set [2] (calcium chloride about 0.250 M), “about 44 Pa”; in data set [2] (calcium chloride about 0.500 M) it was “about 52 Pa”. For the same substance, the “mechanical properties (storage modulus) with calcium chloride compared with sodium chloride or potassium chloride” value in data set [2] (0.5% PuraMatrix (RADA16) mixed with salts at varying concentrations) is “greater mechanical properties”. Besides, the “gelation kinetics by ion” value in data set [2] (treatment with chlorine) is given as “quickest gelation”; in data set [2] (treatment with sulfate) it was “slowest gelation”. Also, the reversibility after perturbation entry in data set [2] (0.5% RADA16 with CaCl2 within the optimal salt concentration range, vortexing and sonication, 48 hours room temperature) is reported as “remained reversible”. In addition, in data set [2] (2.5% RADA16 vs 2.5% RADA16 with CaCl2 (0.25 M / 0.125 M printed)), the “stiffness with added CaCl2 compared with peptide alone” value is recorded as “noticeable increase in stiffness”. The “enhancement of stiffness by cations” value in data set [2] (RADA16 mixed with NaCl, KCl, CaCl2 at the same molar concentrations (0.005-1 M)) was “Ca provided the best enhancement of stiffness”.
